Experimental data as given in patent publication US20250221936A1, “ENGINEERED HEMICHANNELS, ENGINEERED VESICLES, AND USES THEREOF” (VIRGINIA TECH INTELLECTUAL PROPERTIES, INC., priority 2018, published 2025).
“Also recorded” adds a separate entry of the source.

Tests used:
Format in all cases: binding
[1] = molecular target: T1, Cx43 CT (amino acids 255 to 382) (Rattus norvegicus, UniProt P08050); test: Surface plasmon resonance, Cx43 CT analyte; conditions: biotin-peptide immobilized on streptavidin chip; analyte 0.5 to 15 μM
T1 construct: Cx43-CT: amino acids 255 to 382; GST (N, cleaved yes); made in house; host or cells: E. coli BL21
T1 sequence (P08050 255-382): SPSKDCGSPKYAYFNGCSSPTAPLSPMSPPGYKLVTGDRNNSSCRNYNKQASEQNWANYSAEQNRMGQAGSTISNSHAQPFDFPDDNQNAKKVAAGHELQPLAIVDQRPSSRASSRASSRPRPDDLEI
Procedure: (§1) Efficacy of the interaction of each alpha CT1 variant with Cx43 CT or Cx43 CT-KK/QQ was tested using surface plasmon resonance (SPR) as described previously 20. In brief, SPR experiments were performed using a Biacore T200 (GE Healthcare). Equal amounts (response units/RU) of biotin-alpha CT1 variants were immobilized on each flow cell of a streptavidin-coated sensor chip (Biacore Inc) using immobilization buffer (in mM: 10 HEPES, 1 EDTA, 100 NaCl, 0.005% Tween-20) at pH 7.4. Measurements with wild-type (wt) Cx43 CT and mutant Cx43 CT-KK/QQ analytes were done in running buffer (in mM: 10 HEPES, 100 NaCl, pH 7.4) at a flow rate of 30 μl/min. Binding of analytes were verified at different concentrations, in random order (injection volume 120 μl). Interacting proteins were then unbound by injection of […] regeneration buffer (50 mM NaOH and 1 M NaCl) at a flow rate of 10 μl/min. Background levels were obtained from a reference cell containing a biotin-control peptide in which the reversed sequence of the last 9 amino acids of Cx43 was fused to biotin-antennapedia. The RU values obtained with biotin-control peptide were subtracted from the RU values obtained with the different biotin-alphaCT1 variants (wild-type or mutant) to generate the different response curves.

Cx43 CT-KK/QQ = molecular target: T2, Cx43 CT-KK/QQ (Rattus norvegicus, UniProt P08050, K345Q/K346Q); test: Surface plasmon resonance, Cx43 CT-KK/QQ analyte; conditions: biotin-peptide immobilized on streptavidin chip
T2 construct: pGEX-6-P2 Cx43 CT amino acids 255-382; GST (N, cleaved yes); made in house; host or cells: E. coli BL21
T2 sequence (P08050 255-382 K345Q/K346Q): as the sequence (P08050 255-382) above, with K91Q, K92Q counted along it
Text: Peptides were synthesized and quality checked for fidelity and purity using High Performance Liquid Chromatography and mass spectrometry (LifeTein, Hillsborough, NJ). Biotinylated peptides were designed for surface plasmon resonance experiments. Glutathione-S-Transferase (GST) fusion protein constructs composed of the Cx43-CT (pGEX-6-P2 Cx43 CT amino acids 255-382), ZO-1 PDZ1, PDZ2 and PDZ3 were isolated and purified from isopropyl-b-D-thiogalactoside (IPTG)-induced BL21 bacteria using standard procedures, described in references 13, 14, 20. The pGEX6p2-Cx43 CT plasmid was obtained from Prof. Paul L. Sorgen (University of Nebraska Medical Center, USA). Cx43 CT mutant (Cx43 CT-KK/QQ; amino acids Lys345 Lys346 to Gln 345 Gln 346) was developed by site-directed mutagenesis of the pGEX6p2-Cx43 CT plasmid (Agilent technologies, QuikChange II Site-Directed Mutagenesis Kit). The mutation was verified by sequencing. For surface plasmon resonance experiments, the GST was removed using PreScission protease, yielding Cx43 CT protein (wild-type or mutant).
as §1

Cx43 CT = molecular target: T3, Cx43 CT (Rattus norvegicus, UniProt P08050); test: Protein thermal shift assay, Cx43 CT; conditions: 500 μg/ml protein, 25-100 μM peptide
T3 construct: CT: amino acids 255 to 382) alone; GST (N); made in house; host or cells: E. coli BL21
T3 sequence (P08050 255-382): as the sequence (P08050 255-382) above
Procedure: Thermal stability of recombinant GST-PDZ2 or Cx43 CT in the presence or absence of peptides was determined in a 96-well format. Each assay well was composed of 500 μg/ml protein, 25-100 μM of each peptide in PBS buffer, pH7.4. All assays were performed independently six times. Samples were generally prepared in 96-well plates at final volumes of 20 μL. The fluorescent dye SYPRO Orange (5000× concentrate in DMSO, ThermoFisher, S6650) was added to a final concentration of 8X. Reactions were run on QuantStudio 6 Flex Real-Time PCR system (Applied Biosystems, part of Life Technologies Corporation, CA) according to the manufacturer's recommendations using a melt protocol in 0.05-degree/see increments from 25° C. to 95° C. The Reporter Dye was “ROX” and quencher Dye and passive reference were selected as “None” for the melt curve according to manufacturer's instructions. The data were analyzed using Protein Thermal Shift™ Software v1.3 package (Applied Biosystems, CA).

ZO-1 PDZ2 = molecular target: T4, ZO-1 PDZ2 (Homo sapiens, UniProt Q07157); test: EDC cross-linking to GST fusion ZO-1 PDZ domains; conditions: 5, 25 and 50 μM
T4 construct: the second of the three PDZ (PDZ2) domains of ZO-1; made in house; host or cells: E. coli BL21
T4 sequence (Q07157 186-264 limits assumed): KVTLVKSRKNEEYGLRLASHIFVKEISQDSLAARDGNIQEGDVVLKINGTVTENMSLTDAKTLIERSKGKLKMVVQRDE
Procedure: To characterize the interaction between the Cx43 CT substrate and peptides, the in vitro kinase assay was performed as above with modification and the constituents then subjected to a cross-linking reaction. The assay buffer used was 20 mM 3-(N-morpholino) propanesulfonic acid (MOPS), pH 7.2. All other reagents present in the kinase reaction were maintained as described above. The reaction was allowed to proceed at 37° C. for 15 minutes. Afterwards, the carbodiimide crosslinker 1-Ethyl-3-(3-dimethylaminopropyl) carbodiimide HCl (EDC) (Thermo, 22980) was added to each solution for a final concentration of 20 mM. The solution was allowed to cross-link for one hour at room temperature. The reaction was stopped by the addition of 4×LDS loading buffer, boiled for 5 minutes and subsequently separated by PAGE. The resulting gel was stained in Coomassie brilliant blue (Sigma, B0770) for two hours and destained in a solution of 4% methanol 7% acetic acid overnight. Gel bands were subsequently excised for mass spectrometric analysis. For the direct interaction between protein and peptides, PBS, pH 7.5 was used as the coupling buffer. The protein (50 μg/ml) and peptide (25 μM) were allowed to react at room temperature for one hour before EDAC was added to the reaction mixture. The reaction was Western blotted for Cx43, GST or NeutroAvidin.

Sequence | SPR binding to Cx43 CT [1] | SPR binding to Cx43 CT-KK/QQ (Cx43 CT-KK/QQ) | Cx43 CT melt temperature (Tm) (Cx43 CT) | interaction with ZO-1 PDZ2 (ZO-1 PDZ2)
RQPKIWFPNRRKPWKK RPRPAALAI (RQPKIWFPNRRKPWKKRPRPAALAI) [M1 AALAI] | loss of Cx43 CT binding competence | unable mediate interactions | no propensity to alter Cx43 CT thermal stability | –
RQPKIWFPNRRKPWKKRPRPDDLAI [M3 DDLAI] | abrogated peptide interaction with Cx43 CT | unable mediate interactions | no propensity to alter Cx43 CT thermal stability | –
RQPKIWFPNRRKPWKKRPRPDDLE [alpha CT1-I] | – | – | highly significant decreases in melt temperature | incompetent to interact; also recorded: abrogates interaction with ZO-1 PDZ2
RQPKIWFPNRRKPWKKRPRPDDLEI [alpha CT1] | – | unable mediate interactions | highly significant decreases in melt temperature | selectivity of alpha CT1 for ZO-1 PDZ2
